Patent publication US20180291107A1 (Eli Lilly, published 2018)

Legend:
mouse CSF-1R = target: T1, mouse CSF-1R (mouse, UniProt P09581 20-511, limits assumed); experiment: not described
T1 construct: also called murine target protein (of the CSF-1R antibody); murine CSF-1R
T1 sequence (looked up): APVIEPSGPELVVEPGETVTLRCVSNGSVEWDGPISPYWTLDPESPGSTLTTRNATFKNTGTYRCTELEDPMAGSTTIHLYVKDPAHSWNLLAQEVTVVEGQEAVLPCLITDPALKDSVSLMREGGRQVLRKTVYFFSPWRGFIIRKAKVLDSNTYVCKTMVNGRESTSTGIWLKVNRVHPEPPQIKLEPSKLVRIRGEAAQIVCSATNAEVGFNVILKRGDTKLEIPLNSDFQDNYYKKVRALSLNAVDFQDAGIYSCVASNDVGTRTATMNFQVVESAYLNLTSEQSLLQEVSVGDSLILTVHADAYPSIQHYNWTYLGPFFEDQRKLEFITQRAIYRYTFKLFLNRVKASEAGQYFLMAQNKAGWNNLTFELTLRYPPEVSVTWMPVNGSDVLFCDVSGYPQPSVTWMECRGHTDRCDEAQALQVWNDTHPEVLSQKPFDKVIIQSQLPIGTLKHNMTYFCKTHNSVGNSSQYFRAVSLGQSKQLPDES

mouse PD-L1 = target: T2, mouse PD-L1 (mouse, UniProt Q9EP73 19-238, limits assumed); experiment: not described
T2 construct: also called murine target protein (of the PD-L1 antibody); murine PD-L1
T2 sequence (Q9EP73 19-238 limits assumed): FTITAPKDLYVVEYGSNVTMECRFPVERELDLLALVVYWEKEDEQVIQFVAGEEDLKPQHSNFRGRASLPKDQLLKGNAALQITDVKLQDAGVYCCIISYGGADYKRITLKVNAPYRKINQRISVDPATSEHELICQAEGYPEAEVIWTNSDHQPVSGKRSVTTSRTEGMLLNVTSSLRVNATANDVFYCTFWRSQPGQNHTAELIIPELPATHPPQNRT

[1] = target: T3, Soluble human PD-L1-Fc fusion protein (human, UniProt Q9NZQ7 19-239, limits assumed); experiment: SPR (Biacore T200), antibody immobilised, PD-L1-Fc as analyte, 37 C, 1:1 model
T3 construct: not shown: Fc part
T3 sequence (Q9NZQ7 19-239 limits assumed): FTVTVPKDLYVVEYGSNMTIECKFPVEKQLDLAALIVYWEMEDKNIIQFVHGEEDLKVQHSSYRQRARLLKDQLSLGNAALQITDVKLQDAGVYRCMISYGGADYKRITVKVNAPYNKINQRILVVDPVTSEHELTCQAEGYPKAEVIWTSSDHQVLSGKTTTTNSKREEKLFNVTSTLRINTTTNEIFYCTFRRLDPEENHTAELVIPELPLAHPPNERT
Protocol: The kinetics and equilibrium dissociation constant (KD) for human PD-L1 is determined for anti-PD-L1 antibodies of the present invention using surface plasmon resonance (Biacore).
Immobilization of anti-PD-L1 antibodies of the present invention as ligand on to sensor chip surface is performed at 25° C. Soluble human PD-L1-Fc fusion protein is injected as analyte at concentrations ranging from 0.0123 nM-9 nM. The analysis is performed at 37° C. The contact time for each sample is 180 sec at 30 μl/min. The dissociation time was 240-1500 seconds. The immobilized surface is regenerated for 18 seconds with 0.95 M NaCl/25 mM NaOH at […], and then stabilized for 30 seconds. Binding kinetics are analyzed using the Biacore T200 Evaluation software (Version 3.0). Data are referenced to a blank flow cell, and the data are fit to a 1:1 binding model.

B1: Antibody 1 (antibody, human IgG1, kappa, V domains shown)
VH: QDQLVESGGGVVQPGRSLRLSCAASGFTFSSYGMHWVRQAPGEGLEWVAVIWYDGSNKYYADSVKGRFTISRDNSKNTLYLQMNSLRAEDTAVYYCARGDYEVDYGMDVWGQGTTVTVAS
VL: AIQLTQSPSSLSASVGDRVTITCRASQGISNALAWYQQKPGKAPKLLIYDASSLESGVPSRFSGSGSGTDFTLTISSLQPEDFATYYCQQFNSYPWTFGQGTKVEIKR
notes: also called Anti-CSF-1R antibody
Does B1 bind (mouse CSF-1R)?
Result: no binding

B2: CS7 (antibody, V domains shown)
VH: DRQMVESGGGLVRPGRSLKLSCAASGFTFSNYYMAWVRLAPSKGLEWVASISPSGDNTYYPDSVQGRFTISRDNAETTLYLQVDSLRSEDTATYYCATRHYGYSFFDYWGQGVLVTVSS
VL: DTVLTQSPALAVSPGERVTISCRASESVSTLIHWYQQKPGQQPKLLIFLASHLESGVPARFSGSGSGTDFTFTIDPVEADDTATYYCQQSWNDPPTFGGGTKLELK
notes: Rat antibody generated from a hybridoma; also called IMC-CS7; rat anti-mouse CSF-1R antibody
Does B2 bind (mouse CSF-1R)?
Result: binds

B3: Antibody A (antibody, human IgG1, lambda, V domains shown)
VH: QVQLVQSGAEVKKPGSSVKVSCKASGGTFSSYAISWVRQAPGQGLEWMGGIIPIFGTANYAQKFQGRVTITADKSTSTAYMELSSLRSEDTAVYYCARSPDYSPYYYYGMDVWGQGTTVTVSS
VL: QSVLTQPPSASGTPGQRVTISCSGSSSNIGSNTVNWYQQLPGTAPKLLIYGNSNRPSGVPDRFSGSKSGTSASLAISGLQSEDEADYYCQSYDSSLSGSVFGGGIKLTVLG
notes: also called Anti-PD-L1 antibody
Does B3 bind (mouse PD-L1)?
Result: no binding

What about the Kd [1] of the same binder?
The Kd was 0.082 nM.
